From patent publication US20120082682A1 (GlaxoSmithKline, published 2012)

Legend:
[1] = biological target: T1, human IL-13 (recombinant E. coli-expressed) (human, UniProt P35225 35-146); assay: Biacore T100 SPR, purified mAb captured on anti-human IgG, IL13 analyte, 1:1 fit
T1 construct: also called hIL-13
Excerpt: (§1) Table 1 details the overall affinities (equilibrium dissociation constant KD) for the selected constructs from the ProteOn screen and the T100 run

[2] = biological target: T1, human IL-13 (recombinant E. …); assay: Biacore T100 SPR, mAb captured on anti-human IgG, IL13 analyte, 1:1 fit
Excerpt: as §1

[3] = biological target: T1, human IL-13 (recombinant E. …); assay: ProteOn XPR36 SPR, purified mAb captured on anti-human IgG, IL13 analyte, 1:1 fit; range over several runs
Method: (§2) The initial screen of CDRH3 mutants was carried out on the ProteOn XPR36 (Biorad). […] 3M MgCl₂ was used to regenerate the capture surface, removing the bound CDRH3 mutant antibodies ready for another cycle of capture and analyte injection. The data was fitted to the 1:1 model using the software inherent to the machine.

[4] = biological target: T1, human IL-13 (recombinant E. …); assay: ProteOn XPR36 SPR, mAb captured on anti-human IgG, IL13 analyte
Method: as §2

[5] = biological target: T1, human IL-13 (recombinant E. …); assay: Biacore T100 SPR, purified mAb captured on anti-human IgG, IL13 analyte, 1:1 fit; remark: listed apart in the source
Excerpt: as §1

[6] = biological target: T1, human IL-13 (recombinant E. …); assay: cell-based or functional assay
[7] = biological target: T1, human IL-13 (recombinant E. …); assay: cell-based or functional assay; remark: listed apart in the source
[8] = biological target: T1, human IL-13 (recombinant E. …); assay: Biacore T100 SPR, mAb captured on anti-human IgG, IL13 analyte
Method: as §1
In light of this, mutations at this residue that were not present in the initial screen were tested using the ProteOn using the same method as described earlier and again using antibodies direct from tissue culture supernatants.

T1 sequence (P35225 other isoform, or with tags, fused parts or gaps limits assumed): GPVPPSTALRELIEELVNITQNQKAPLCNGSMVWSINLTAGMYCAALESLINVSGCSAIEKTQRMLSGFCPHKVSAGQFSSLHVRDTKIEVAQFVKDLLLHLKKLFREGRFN

Kd [1]: 0.366 nM
Kd [2]: 0.36 nM
koff [2]: 0.000456 s⁻¹
kon [2]: 1.27e+06 M⁻¹ s⁻¹
Kd [3]: 0.45 to 0.6 nM
Kd [4]: 0.39 to 0.46 nM
Kd [5]: 0.326 nM
koff [5]: 0.000368 s⁻¹
kon [5]: 1.13e+06 M⁻¹ s⁻¹
ND50 (nM), TF-1 cell proliferation bioassay [6]: 9.77 nM
Mean ND50 value (nM), TF-1 cell proliferation bioassay [7]: 5.01 nM
Kd [8]: 0.346 nM
B1: A1L1 (antibody, human IgG1, kappa, V domains shown)
VH: QVQLVQSGAEVKKPGSSVKVSCKASGFYIKDTYMHWVRQAPGQGLEWMGTIDPANGNTKYVPKFQGRVTITADESTSTAYMELSSLRSEDTAVYYCARSIYDDYHYDDYYAMDYWGQGTLVTVSS
VL: DIVMTQSPLSLPVTPGEPASISCRSSQNIVHINGNTYLEWYLQKPGQSPRLLIYKISDRFSGVPDRFSGSGSGTDFTLKISRVEADDVGIYYCFQGSHVPWTFGQGTKLEIKR
notes: Humanised version of murine 6A1, human IgG1 kappa; also called parental; 586 (mAb)
